Test results taken from patent publication US10669350B2, “Antigen-binding constructs that bind to and inhibit catalase and/or superoxide dismutase as well as pharmaceutical compositions containing them for tumor therapy” (priority 2015, dated 2020).
Entries after “also recorded” stand apart in the source; their conditions may differ.

How the values were obtained:
[1] = system: MKN-45 gastric carcinoma cells; test: Standard preparation for autocrine ROS-controlled apoptosis induction in tumor cells (percentage of apoptotic cells); type: cell-based, human; details: for apoptosis induction in MKN-45 cells: increasing concentrations, 3-4 hours at 37° C., 5% CO2
Protocol: (§1) The experiments shown in FIG. 13-24 were carried out with a standard preparation for the apoptosis induction that is based on the method performed in Heinzelmann and Bauer 2010. The tumor cells used were taken from an optimally growing semi-sealed culture, centrifuged and placed in fresh medium. The test was performed in 96-well cell culture plates with 12 500 MKN-45 cells/100 μl medium or 10 000 SHEP cells/100 μl medium. MKN-45 cells grow in suspension, SHEP cells are adherent. The tests with SHEP cells were started as soon as the cells had grown on. By adding increasing concentrations of single domain VHH fragments that either inhibit catalase or SOD the protection of the tumor cells from their own ROS signaling was annulled so that based on the cell-owned extracellular superoxide anion production the NO/peroxynitrite signal path and the HOCl path (with MKN-45 cells) or in case of the SHEP cells only the NO/peroxynitrite path could start when the cells were incubated at 37° C. The analysis of the signal paths was carried out by the application of inhibitors of the NADPH oxidase (AEBSF), the HOCl scavenger taurine, the peroxynitrite scavenger FeTPPS and the singlet oxygen scavenger histidine. In some experiments for comparison instead of the single domain VHH fragments either recombinant Fab fragments or monoclonal antibodies were applied. This is indicated in the respective illustrations.
Double preparations were examined at the times shown in the text by means of phase contrast reverse microscopy for the percentage of apoptotic cells. Here, the classical apoptosis criteria described and documented in Heinzelmann and Bauer 2010 such as condensation of the nucleus, fragmentation of the nucleus, and membrane blebbing were used. Per single preparation at least 250 randomly selected cells were examined for the presence of apoptosis features. […]

[2] = target: T1, human catalase (Homo sapiens, UniProt P04040); test: ELISA selection of clones binding to human catalase
T1 sequence (P04040 2-527 limits assumed): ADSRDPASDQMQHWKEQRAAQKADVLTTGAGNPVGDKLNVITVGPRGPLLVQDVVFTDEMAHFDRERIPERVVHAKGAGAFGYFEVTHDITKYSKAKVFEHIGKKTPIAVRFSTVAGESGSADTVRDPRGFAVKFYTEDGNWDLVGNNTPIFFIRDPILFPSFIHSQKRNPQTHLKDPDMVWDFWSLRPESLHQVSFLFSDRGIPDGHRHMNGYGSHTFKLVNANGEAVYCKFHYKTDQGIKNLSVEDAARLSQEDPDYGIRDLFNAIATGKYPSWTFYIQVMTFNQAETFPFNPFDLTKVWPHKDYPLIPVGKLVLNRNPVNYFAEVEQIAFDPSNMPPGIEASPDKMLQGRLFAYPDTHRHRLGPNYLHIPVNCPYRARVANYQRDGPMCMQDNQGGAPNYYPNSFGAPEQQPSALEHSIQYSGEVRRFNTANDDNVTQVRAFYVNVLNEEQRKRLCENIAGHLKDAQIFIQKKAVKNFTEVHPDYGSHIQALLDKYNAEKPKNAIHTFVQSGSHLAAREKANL
Excerpt: […] […] In a second run, by employing the cell culture system described by Heinzelmann and Bauer (Heinzelmann S. and Bauer G. Multiple protective functions of catalase against intercellular apoptosis-inducing ROS signaling of human tumor cells, Biol. Chem. 391, 675-693, 2010) it was checked which one of the single domain VHH fragments binding to catalase actually results in an inhibition of the catalase, what is expressed as ROS-dependent apoptosis induction in the cells. […] The clones underlying the single domain VHH fragments were sequenced by standard methods and the amino acid sequence was determined therefrom.

[3] = target: T1, human catalase; test: Check for inhibition (neutralization) of catalase, expressed as ROS-dependent apoptosis induction in cell culture system; type: cell-based; parameters: catalase-neutralizing single domain VHH fragments only neutralize the membranous catalase of tumor cells; endogenous in cells; host or cells: MKN-45 human gastric carcinoma cells
Excerpt: For the determination of the neutralizing effect of single domain VHH or Fab fragments directed against catalase a test system is suitable that is based on the apoptosis-inducing effect of H2O2 and the degradation of H2O2 by catalase. Here, as the cellular test system both non-malignant and malignant cells can be employed. It is only required that apoptosis induction is quantitatively determinable in the selected cell system. As the H2O2 source, H2O2-generating glucose oxidase (GOX) is preferred over the direct addition of H2O2, because the continuous production of H2O2 by GOX (by using glucose from the culture medium of the cells) allows a very precise adjustment of the H2O2 flux. The test system is based on the inhibition of the apoptosis induction by GOX mediated by catalase and the restoration of the apoptosis induction by catalase-neutralizing single domain VHH or Fab fragments. […] For that, in general depending on the cell system, GOX concentrations between 0.1 and 40 mU/ml are required. In a second step, the concentration of human catalase is determined that is just sufficient to abolish the effect achieved by GOX. […] After successful determination of the suitable concentrations of GOX and catalase then the actual experiment for the determination of the catalase-neutralizing effect of single domain VHH or Fab fragments can be performed. For that, the selected catalase concentration is pre-incubated for 20 minutes with selected concentrations of the single domain VHH or Fab fragments to be tested. Subsequently, said mixture together with the concentration of GOX determined to be suitable is added to the cells and apoptosis induction is measured. A reliable neutralizing effect of the single domain VHH or Fab fragments is obtained if the inhibiting effect of the catalase on the GOX-mediated apoptosis induction was abolished by at least 90%, i.e. if 90% of the apoptosis induction value is achieved that is shown in control preparations without addition of catalase. If there is achieved an abolition of the inhibiting effect of catalase of at least 50% there may be assumed a significant inhibiting effect of the tested single domain VHH or Fab fragment. […]
[…] In a second run, by employing the cell culture system described by Heinzelmann and Bauer (Heinzelmann S. and Bauer G. Multiple protective functions of catalase against intercellular apoptosis-inducing ROS signaling of human tumor cells, Biol. Chem. 391, 675-693, 2010) it was checked which one of the single domain VHH fragments binding to catalase actually results in an inhibition of the catalase, what is expressed as ROS-dependent apoptosis induction in the cells. […] The clones underlying the single domain VHH fragments were sequenced by standard methods and the amino acid sequence was determined therefrom.

[4] = system: human neuroblastoma line SHEP; test: Standard preparation for apoptosis induction in SHEP cells (percentage of apoptotic cells); type: cell-based
Protocol: as §1
Double preparations were examined at the times shown in the text by means of phase contrast reverse microscopy for the percentage of apoptotic cells. Here, the classical apoptosis criteria described and documented in Heinzelmann and Bauer 2010 such as condensation of the nucleus, fragmentation of the nucleus, and membrane blebbing were used. Per single preparation at least 250 randomly selected cells were examined for the presence of apoptosis features.
10 000 cells of the human neuroblastoma line SHEP per 100 μl medium were mixed with the given concentrations of the catalase-neutralizing single domain VHH fragment aCATcb0972, the SOD-neutralizing single domain VHH fragment aSOD0989, the SOD-binding but not neutralizing single domain VHH fragment aSODcb991 and the hybrid molecule aCATaSOD and incubated for 5 hours at 37° C., 5% CO2, before percentages of apoptotic cells were determined.
10 000 cells of the human neuroblastoma line SHEP per 100 μl medium were mixed with the given concentrations of the SOD-neutralizing single domain VHH fragment aSOD0989. Parallel preparations received 20 μM or 100 μM of the NO donor sodium nitroprusside or were incubated without a further additive. After 5 hours at 37° C., 5% CO2 the percentages of apoptotic cells were determined.

[5] = Table 2, FIG. 20 experiment, 3.5 hours

In the case of CC(=O)O[C@H]1C(=O)[C@@]2(C)[C@H]([C@H](OC(=O)c3ccccc3)[C@]3(O)C[C@H](OC(=O)[C@H](O)[C@@H](NC(=O)c4ccccc4)c4ccccc4)C(C)=C1C3(C)C)[C@]1(OC(C)=O)CO[C@@H]1C[C@@H]2O [taxol, reference compound], the “displacement of the required taxol concentration by neutralizing single domain VHH fragments” value ([1]; 4 hours) is reported as “less than a thousandth”, the “optimum effect concentration of taxol alone” value ([1]; 4 hours) is reported as 1100 ng/mL and the “apoptosis induction in MKN-45 cells” value [1] is reported as “induces apoptosis in the tumor cells in a concentration-dependent manner”.

B1: aCATcb0974: single domain VHH fragment that binds to and neutralizes human catalase; SEQ ID NO: 12 (protein)
VHH: MAQVQLVESGGGLVQPGGSLRLSCAASGSIFSIASMGWYRQAPGKQRDLVATITSDGSTKYADSVKGRFTISRDNAKNTMYLQMNSVKPEDAAVYYCNADADDLEPGSYDYDYWGQGTQVTVSSKKKHHHHHH
modifications: catalase binding
With B1 the “binding to human catalase” value [2] was “bind to human catalase” and the “neutralization (inhibition) of human catalase” value (shortened to “neutralization (inhibition)”) [3] was “neutralize it”.

B2: aCATcb0975: single domain VHH fragment binding to human catalase, but not neutralizing; SEQ ID NO: 13 (protein)
VHH: MAQVQLVESGGGLVQPGGSLRLSCAASASIFSIYVMAWYRQAPGKQRELVATVTSGGATNYANSVKGRFTISRDNAKNTMDLQMNSLKPEDTAVYYCNAEDYYDYGLSRSKIYWGQGTQVTVSSKKKHHHHHH
modifications: catalase binding
For B2, the “binding to human catalase” value [2] was “bind to human catalase” and the “neutralization (inhibition)” value [3] was “do not neutralize it”.

B3: aCATcb0973: single domain VHH fragment binding to human catalase, but not neutralizing; SEQ ID NO: 11 (protein)
VHH: MAEVQLVESGGGLVQPGGSLRLSCAVSGFIFNTYSMRWGRQAPGKGLEWVSSISTGGYSTYADSVKGRFTISRDNAKNLVYLQMNSLKPEDTAVYYCGWGAFVRGERPQGQGTQVTVSSKKKHHHHHH
modifications: catalase binding
B3 was tested, and the “binding to human catalase” value [2] was “bind to human catalase” and the “neutralization (inhibition)” value [3] was “do not neutralize it”.

B4: monoclonal aCAT: neutralizing conventional monoclonal antibody against catalase (Sigma) as a control (protein)
VHH: MAQVQLVESGGGLVQAGGSLRLSCAASERTFNTYGMGWFRQAPGKEREFVATISWSGDSTYYADSVKGRFTISRDNAKNTMYLQMNSLKPEDTAVYYCNANSEYGDSYWGQGTQVTVSSKKKHHHHHH
For B4, the “optimum effect concentration (text, FIG. 20)” value ([1]; 3.5 hours) was 111 ng/mL, the “relation to opt. conc. single domain Fab” value ([1]; Table 1, concentration basis, versus the corresponding single domain VHH) was 277 500 and the optimum conc. ([1]; Table 1, concentration necessary for optimum apoptosis induction, taken from FIGS. 13A, 13B, 15A, 15B, 20) was 111 ng/mL. For the same molecule, the “relation (molar basis)” value ([1]; Table 1, versus the corresponding single domain VHH) was 46 250, the optimum conc. [1, 5] was 111 ng/mL and the “relation to opt. conc. hybrid Fab” value ([1]; Table 2, concentration basis, versus hybrid aCATaSOD) was 4.6 × 10^8. The “relation (molar basis)” value ([1]; Table 2, versus hybrid aCATaSOD) was 1.54 × 10^8.

B5: aCATaSOD: bispecific hybrid single domain VHH fragment of cb 0972 and cb 0989 connected via a linker; SEQ ID NO: 17 (protein)
VHH: MAQVQLVESGGGLVQAGGSLRLSCAASERTFNTYGMGWFRQAPGKEREFVATISWSGDSTYYADSVKGRFTISRDNAKNTMYLQMNSLKPEDTAVYYCNANSEYGDSYWGQGTQVTVSSGGGGSGGGGSGGGGSAQVQLVESGGGLVQSGGSLTLSCTASGFTISNYPMTWVRQAPGKGLEWVSRINSGGDRTLYADSVKGRFTVSRDNARNTMYLQMNNLKPEDTGLYFCADSGAGWRYWGQGTQVTVSSKKKHHHHHH
modifications: bispecific
In the case of B5, the “apoptosis induction after siRNA-mediated knockdown of FAS receptor or caspase-8” value ([1]; 24 nM siRNA, four hours) is reported as “does not require the FAS receptor and its downstream caspase-8; also recorded: prevents the supra-optimum drop of the apoptosis induction curve”, the “apoptosis induction after siRNA-mediated knockdown of NOX1, iNOS2 or caspase-9” value ([1]; 24 nM siRNA, four hours) is reported as “completely prevents the apoptosis induction” and the “apoptosis induction in the presence of peroxynitrite scavenger FeTPPS” value ([1]; 25 μM FeTPPS) is reported as “complete inhibition by FeTPPS”. For the same molecule, the “apoptosis induction in the presence of NOX1 inhibitor AEBSF” value ([1]; 100 μM AEBSF) was “completely prevented”, the “apoptosis induction in the presence of singlet oxygen scavenger histidine” value ([1]; 2 mM histidine) was “attenuating effect on the right-side drop of the optimum curve” and the “apoptosis induction in the presence of HOCl scavenger taurine” value ([1]; 50 mM taurine) was “no inhibition by taurine”. The optimum conc. [1, 5] was 2.4e-07 ng/mL, the “apoptosis induction in MKN-45 cells” value [1] was “gradually superior over the reverse arrangement” and the “ROS signaling path induced” value ([1]; inhibitor analysis) was “exclusively the NO/peroxynitrite path”. For the same molecule, the “efficacy compared with single domain VHH fragments directed against one target structure” value ([4]; 5 hours) was “much more effective” and the “apoptosis induction in SHEP cells” value ([4]; 5 hours at 37° C., 5% CO2) was “can induce concentration-dependent apoptosis”.
